Measured values as given in patent US10801046B2, “Methods and materials for biosynthesizing multifunctional, multivariate molecules via carbon chain modification” (INVISTA NORTH AMERICA S.A.R.L., priority 2016, dated 2020).

B1: SEQ ID NO: 116: Chromobacterium violaceum aminotransferase (protein, listed as Chromobacterium violaceum)
chain: MQKQRTTSQWRELDAAHHLHPFTDTASLNQAGARVMTRGEGVYLWDSEGNKIIDGMAGLWCVNVGYGRKDFAEAARRQMEELPFYNTFFKTTHPAVVELSSLLAEVTPAGFDRVFYTNSGSESVDTMIRMVRRYWDVQGKPEKKTLIGRWNGYHGSTIGGASLGGMKYMHEQGDLPIPGMAHIEQPWWYKHGKDMTPDEFGVVAARWLEEKILEIGADKVAAFVGEPIQGAGGVIVPPATYWPEIERICRKYDVLLVADEVICGFGRTGEWFGHQHFGFQPDLFTAAKGLSSGYLPIGAVFVGKRVAEGLIAGGDFNHGFTYSGHPVCAAVAHANVAALRDEGIVQRVKDDIGPYMQKRWRETFSRFEHVDDVRGVGMVQAFTLVKNKAKRELFPDFGEIGTLCRDIFFRNNLIMRACGDHIVSAPPLVMTRAEVDEMLAVAERCLEEFEQTLKARGLA
modifications: Chromobacterium violaceum (strain ATCC 12472 / DSM 30191 / JCM 1249 / NBRC 12614 / NCIMB 9131 / NCTC 9757)
notes: Chromobacterium violaceum aminotransferase
B2: SEQ ID NO: 126: Pseudomonas syringae aminotransferase (protein)
chain: MSANNPQTLEWQALSSEHHLAPFSDYKQLKEKGPRIITRAEGVYLWDSEGNKILDGMSGLWCVAIGYGREELADAASKQMRELPYYNLFFQTAHPPVLELAKAISDIAPEGMNHVFFTGSGSEGNDTMLRMVRHYWALKGQPNKKTIISRVNGYHGSTVAGASLGGMTYMHEQGDLPIPGVVHIPQPYWFGEGGDMTPDEFGIWAAEQLEKKILELGVENVGAFIAEPIQGAGGVIVPPDSYWPKIKEILSRYDILFAADEVICGFGRTSEWFGSDFYGLRPDMMTIAKGLTSGYVPMGGLIVRDEIVAVLNEGGDFNHGFTYSGHPVAAAVALENIRILREEKIVERVRSETAPYLQKRLRELSDHPLVGEVRGVGLLGAIELVKDKTTRERYTDKGAGMICRTFCFDNGLIMRAVGDTMIIAPPLVISFAQIDELVEKARTCLDLTLAVLQG
modifications: Pseudomonas syringae pv. syringae (strain B728a)
notes: Pseudomonas syringae aminotransferase

How the values were obtained:
Type in all cases: biochemical
[1] = Aminotransferase activity, reverse direction (7-aminoheptanoate to 7-oxoheptanoate), L-alanine formation by RP-HPLC; conditions: cell free extract, 10 mM substrate, 25° C., 4 h, against empty vector control, FIG. 48
Protocol: (§1) A sequence encoding an N-terminal His-tag was added to the genes from Chromobacterium violaceum, Pseudomonas syringae, Rhodobacter sphaeroides, and Vibrio Fluvialis encoding the aminotransferases of SEQ ID NOs: 116 (GenBank Accession No. AAQ59697.1), 126 (GenBank Accession No. AAY39893.1), 127 (GenBank Accession No. ABA81135.1), and 128 (GenBank Accession No. AEA39183.1), respectively such that N-terminal HIS tagged aminotransferases could be produced. Each of the resulting modified genes was cloned into a pET21a expression vector under control of the T7 promoter and each expression vector was transformed into a BL21 [DE3] E. coli host. The resulting recombinant E. coli strains were cultivated at 37° C. in a 250 mL shake flask culture containing 50 mL LB media and antibiotic selection pressure, with shaking at 230 rpm. Each culture was induced overnight at 16° C. using 1 mM IPTG.
(§2) The pellet from each induced shake flask culture was harvested via centrifugation. Each pellet was resuspended and lysed via sonication. The cell debris was separated from the supernatant via centrifugation and the cell free extract was used immediately in enzyme activity assays.
Enzyme activity assays in the reverse direction (i.e., 7-aminoheptanoate to 7-oxoheptanoate) were performed in a buffer composed of a final concentration of 50 mM HEPES buffer (pH=7.5), 10 mM 7-aminoheptanoate, 10 mM pyruvate and 100 μM pyridoxyl 5′ phosphate. Each enzyme activity assay reaction was initiated by adding cell free extract of the aminotransferase gene product or the empty vector control to the assay buffer containing the 7-aminoheptanoate and incubated at 25° C. for 4 h, with shaking at 250 rpm. The formation of L-alanine from pyruvate was quantified via RP-HPLC.

[2] = Aminotransferase activity, 7-aminoheptanol to 7-oxoheptanol, L-alanine formation by RP-HPLC; conditions: cell free extract, 10 mM substrate, 25° C., 4 h, against empty vector control, FIG. 52
Protocol: (§3) A nucleotide sequence encoding an N-terminal His-tag was added to the Chromobacterium violaceum, Pseudomonas syringae and Rhodobacter sphaeroides genes encoding the aminotransferases of SEQ ID NOs: 116 (GenBank Accession No. AAQ59697.1), 126 (GenBank Accession No. AAY39893.1), and 127 (GenBank Accession No. ABA81135.1), respectively such that N-terminal HIS tagged aminotransferases could be produced. The modified genes were cloned into a pET21a expression vector under the T7 promoter. Each expression vector was transformed into a BL21[DE3] E. coli host. Each resulting recombinant E. coli strain were cultivated at 37° C. in a 250 mL shake flask culture containing 50 mL LB media and antibiotic selection pressure, with shaking at 230 rpm. Each culture was induced overnight at 16° C. using 1 mM IPTG.
as §2
Enzyme activity assays in the reverse direction (i.e., 7-aminoheptanol to 7-oxoheptanol) were performed in a buffer composed of a final concentration of 50 mM HEPES buffer (pH=7.5), 10 mM 7-aminoheptanol, 10 mM pyruvate, and 100 μM pyridoxyl 5′ phosphate. […] The formation of L-alanine was quantified via RP-HPLC.

[3] = Aminotransferase activity, heptane-1,7-diamine to 7-aminoheptanal, L-alanine formation by RP-HPLC; conditions: cell free extract, 10 mM substrate, 25° C., 4 h, against empty vector control, FIG. 50
Protocol: as §3, with “A” for “A nucleotide”, “aeruginosa, Pseudomonas syringae, Rhodobacter sphaeroides, Escherichia coli,” for “syringae”, “Vibrio fluvialis” for “Rhodobacter sphaeroides”, “AAQ59697.1), 119 (RefSeq Accession No. NP_417544.5), 125 (GenBank Accession No. AAGO8191.1),” for “AAQ59697.1),”, “AAY39893.1),” for “AAY39893.1), and”, “ABA81135.1), and 128 (GenBank Accession No. AEA39183.1),” for “ABA81135.1),”
as §2
Enzyme activity assays in the reverse direction (i.e., heptane-1,7-diamine to 7-aminoheptanal) were performed in a buffer composed of a final concentration of 50 mM HEPES buffer (pH=7.5), 10 mM heptane-1,7-diamine, 10 mM pyruvate, and 100 μM pyridoxyl 5′ phosphate. Each enzyme activity assay reaction was initiated by adding cell free extract of the aminotransferase gene product or the empty vector control to the assay buffer containing the heptane-1,7-diamine and then incubated at 25° C. for 4 h, with shaking at 250 rpm. The formation of L-alanine was quantified via RP-HPLC.

[4] = Aminotransferase activity, N7-acetyl-1,7-diaminoheptane to N7-acetyl-7-aminoheptanal, L-alanine formation by RP-HPLC; conditions: cell free extract, 10 mM substrate, 25° C., 4 h, against empty vector control, FIG. 51
Protocol: The activity of the N-terminal His-tagged aminotransferases of SEQ ID NOs: 116 (GenBank Accession No. AAQ59697.1), 119 (RefSeq Accession No. NP_417544.5), 125 (GenBank Accession No. AAGO8191.1), 126 (GenBank Accession No. AAY39893.1), 127 (GenBank Accession No. ABA81135.1), and 128 (GenBank Accession No. AEA39183.1) (see Example 6) for converting N7-acetyl-1,7-diaminoheptane to N7-acetyl-7-aminoheptanal was assayed using a buffer composed of a final concentration of 50 mM HEPES buffer (pH=7.5), 10 mM N7-acetyl-1,7-diaminoheptane, 10 mM pyruvate and 100 μM pyridoxyl 5′ phosphate. Each enzyme activity assay reaction was initiated by adding a cell free extract of the aminotransferases or the empty vector control to the assay buffer containing the N7-acetyl-1,7-diaminoheptane then incubated at 25° C. for 4 h, with shaking at 250 rpm. The formation of L-alanine was quantified via RP-HPLC.

[5] = Aminotransferase activity, forward direction (7-oxoheptanoate to 7-aminoheptanoate), pyruvate formation by RP-HPLC; conditions: cell free extract, 10 mM substrate, 10 mM L-alanine, 25° C., 4 h, against empty vector control, FIG. 49
Protocol: as §1
The pellet from each induced shake flask culture was harvested via centrifugation. Each pellet was resuspended and lysed via sonication. […]
Enzyme activity in the forward direction (i.e., 7-oxoheptanoate to 7-aminoheptanoate) was confirmed for the aminotransferases of SEQ ID NO: 126 (GenBank Accession No. AAY39893.1), SEQ ID NO: 127 (GenBank Accession No. ABA81135.1), and SEQ ID NO: 128 (GenBank Accession No. AEA39183.1). […] The formation of pyruvate was quantified via RP-HPLC.

Row | Molecule | acceptance of 7-aminoheptanoate as substrate [1] | acceptance of 7-aminoheptanol as substrate, forming 7-oxoheptanol [2] | acceptance of heptane-1,7-diamine as substrate, forming 7-aminoheptanal [3] | acceptance of N7-acetyl-1,7-diaminoheptane as substrate, forming N7-acetyl-7-aminoheptanal [4] | acceptance of 7-oxoheptanoate as substrate, forming 7-aminoheptanoate [5]
1 | B1 | accepted 7-aminoheptanote as substrate | accepted 7-aminoheptanol as a substrate | accepted heptane-1,7-diamine as substrate | accepted N7-acetyl-1,7-diaminoheptane as a substrate | 
2 | B2 | accepted 7-aminoheptanote as substrate | accepted 7-aminoheptanol as a substrate | accepted heptane-1,7-diamine as substrate | accepted N7-acetyl-1,7-diaminoheptane as a substrate | accepted 7-oxoheptanoate as a substrate
